# Experiment: soluble on expression in E. coli; label from the status in PepcDB or PDB records
row,Sequence,soluble on expression in E. coli
1,MKARSKKSVGIVALALLMGKVYAAPTPAACPDVSVIKQHQEGQGFVYTAPAPNNQQWRGENPRGDAKDINSIAFKSANIRNRSAITGNAFVACDYEGNSSAGIRMSLETLKVATPVGKAWNGLSCSESNPSACTFEY,not soluble
2,MAHHHHHHMALTLSPVEAALATCVALRYFYAHALHLSAATRVAHSVGPAPHDLSDRFTANLPFEDYLQWGLESIYSDASSAEAHLCLEQLSSNLRDAIMTHANNMEFRFLDEAPSLFDTVLLTSLYLVRSRVLRMPLLSSTSNKPDSNCSVFGPGLDALNHCSTSPAAVVVVSAARRSVVVRARRRINRGEEITLDYRLTGSGRGVSRGHPSHNGSLLRGDVICMNDDWAARYLMN,not soluble
3,QNEEEADRIGIQVLQRSGFDPQAMPMFMGKLLDESRYSTRPPEMLLTHPLPESRLADARNRANQMRPVVVQSSADFYLAKARTLGMYTNGDNKLGTDLLNAWDKGNIRQQHAAQYGRALLAMESNNFDQARKTLQPLLNADPQNAWYLDLATDIDLGQKKTSDAINRLKNARELRTNPVLQLNLANALLQGGQPGEAATILNRYTFTYKEDGNGWDLLAQAEGALGNRDQELAARAESMALVGQLEQA,not soluble
4,SINNGTFDEPIVNDQANNPDEWFIWQAGDYGISGARVSDYGVRDGYAYITIADPGTDTWHIQFNQWIGLYRGKTYTISFKAKADTPRPINVKILQNHDPWTNYFAQTVNLTADWQTFTFTYTHPDDADEVVQISFELGEGTATTIYFDDVTVSPQ,soluble
5,MEETEFVPHKLTELRVGTLYGPQIYMTSGQGNSGFDYDMAVLFAEYLDVPLKMVPYTNLAELYDALKKNEIDIIAAGMTETPARREHFRLGPPLYRVNQVLVYREGMPAPKDISDLKGKITVIADSSFVETLTQLQKRHPTLVWDQVTDKDNEELLTMIANKEIDYTIADSSSVQINRRYLPVLRSGLVLEEKLNVVWLLPPTHSDGLMSQLLAFWHQEKLAGTLDHLNEKYFGHVKRFDYIDTRAFLRAIETVLPRYRQHFETHAGDLDWRKLAATSYQESHWNPNARSPTGVRGMMMLTQPTAKEIGITNRLDAEESIRGGAAYLRDMINRLPESIPESQRMWFALASYNIGYAHVEDARKLAESMELNPNAWQDLKKVLPLLQKRKYYQKTRYGYARGSEAVHYVDSIRRYYDTLVWVDNQSKQQNSEEVAPSDLTAEETPVPAPGTLSPDKPKLEHHHHHH,soluble
6,MGSDKIHHHHHHMKNVLILSSSPRRGGNSDTLCDEFMQGAIESGHRVEKVFLRDKTIHPCTGCGVCSQYKKPCPQKDDAAEIIGKMLAADVIVMATPVYFYAMSAQMKTLIDRCCGPYTEMKNKEFYFIATAAEEDNGIMDRIVANFMGFLDCLENPTVKGTLFCGGVWHVGEIEGNPTLRQAYEQGKRV,not soluble
7,MMKAKVIDAVSFSYILRTVGDFLSEANFIVTKEGIRVSGIDPSRVVFLDIFLPSSYFEGFEVSQEKEIIGFKLEDVNDILKRVLKDDTLILSSNESKLTLTFDGEFTRSFELPLIQVESTSPPSVNLEFPFKAQLLTITFADIIDELSDLGEVLNIHSKENKLYFEVIGDLSTAKVELSTDNGTLLEASGADVSSSYGMEYVANTTKMRRASDSMELYFGSQIPLKLRFKLPQEGYGDFYIAPRAD,soluble
8,MSSTLAKIAEIEAEMARTQKNKATAHHLGLLKARLAKLRRELITPKGGGGGGPGEGFDVAKTGDARIGFVGFPSVGKSTLLSNLAGVYSEVAAYEFTTLTTVPGVIRYKGAKIQLLDLPGIIEGAKDGKGRGRQVIAVARTCNLILIVLDVLKPLGHKKIIENELEGFGIRLNSKPPNIGFKKKDKGGINLTATCPQSELDAETVKSILAEYKIHNADVTLRSDATADDLIDVVEGNRVYIPCIYVLNKIDQISIEELDIIYKVPHCVPISAHHRWNFDDLLEKIWDYLKLVRIYTKPKGQLPDYTSPVVLPYSRTTVEDFCMKIHKNLIKEFKYALVWGLSVKHNPQKVGKDHTLEDEDVIQIVKK,soluble
9,GPGSMEATVAPSTGLRQLRRVRRARTQYERLQRPDDIQPGYPIPSIEGWVLFFSNLPETTTQEDIANYLVSFKEGDPDYFGAITDIKIPLNADCFCAGYALVELEDRAGYERAIAELNGTVFPSADKPLVVAPTFLGEEEEQEPQAEEVAPGEKRARD,soluble
